Test results: article PMC9179170 (Nature, 2021)

Biological target: Hsp90α ATP-binding-deficient mutant Hsp90(D93N) (human, UniProt P07900 1-732, D93N)
Assay: cryo-EM structure

B1: MBP–GRLBD(520–777) (F602S) (domain or fragment, UniProt P04150 520-777, looked up)
chain: IVPATLPQLTPTLVSLLEVIEPEVLYAGYDSSVPDSTWRIMTTLNMLGGRQVIAAVKWAKAIPGFRNLHLDDQMTLLQYSWMSLMAFALGWRSYRQSSANLLCFAPDLIINEQRMTLPCMYDQCKHMLYVSSELHRLQVSYEEYLCMKTLLLLSSVPKDGLKSQELFDEIRMTYIKELGKAIVKREGNSSQNWQRFYQLTKLLDSMHEVVENLLNYCFQTFLDKTMSIEFPEMLAEIITNQIPKYSNGNIKKLLFHQK
- binding result: binds
